These results are taken from PMC3495168 (Biology of the cell / under the auspices of the European …, 2011).

This test addresses GST-fused full length CIN85 (human, UniProt Q96B97-1 1-665). Put plainly: pull-down.

Chain of GST-fused full length CIN85 (Q96B97 whole entry, the tested form may be a part): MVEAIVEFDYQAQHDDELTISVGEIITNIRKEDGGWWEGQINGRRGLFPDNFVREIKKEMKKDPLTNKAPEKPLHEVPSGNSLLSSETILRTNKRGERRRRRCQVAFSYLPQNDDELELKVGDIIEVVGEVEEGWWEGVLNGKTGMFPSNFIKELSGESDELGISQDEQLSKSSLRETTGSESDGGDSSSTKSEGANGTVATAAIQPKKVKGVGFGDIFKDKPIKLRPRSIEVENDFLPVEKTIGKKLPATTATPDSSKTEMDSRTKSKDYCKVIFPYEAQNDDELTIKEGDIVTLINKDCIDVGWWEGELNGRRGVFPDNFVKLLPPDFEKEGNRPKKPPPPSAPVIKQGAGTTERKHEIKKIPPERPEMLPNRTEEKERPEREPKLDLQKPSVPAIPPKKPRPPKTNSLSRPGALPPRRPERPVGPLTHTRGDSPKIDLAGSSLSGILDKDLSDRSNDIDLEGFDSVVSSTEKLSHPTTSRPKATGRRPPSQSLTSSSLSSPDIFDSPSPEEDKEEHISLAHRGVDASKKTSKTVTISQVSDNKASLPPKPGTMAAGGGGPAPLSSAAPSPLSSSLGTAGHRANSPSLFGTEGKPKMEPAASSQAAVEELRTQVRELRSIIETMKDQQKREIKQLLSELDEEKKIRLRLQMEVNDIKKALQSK

B1: Flag-ARAP1 (natural protein, human, UniProt Q96P48 1-1450, looked up)
chain: MAEAGDAALSVAEWLRALHLEQYTGLFEQHGLVWATECQGLSDTRLMDMGMLLPGHRRRILAGLLRAHTSPAPAPRPTPRPVPMKRHIFRSPPVPATPPEPLPTTTEDEGLPAAPPIPPRRSCLPPTCFTTPSTAAPDPVLPPLPAKRHLAELSVPPVPPRTGPPRLLVSLPTKEEESLLPSLSSPPQPQSEEPLSTLPQGPPQPPSPPPCPPEIPPKPVRLFPEFDDSDYDEVPEEGPGAPARVMTKKEEPPPSRVPRAVRVASLLSEGEELSGDDQGDEEEDDHAYEGVPNGGWHTSSLSLSLPSTIAAPHPMDGPPGGSTPVTPVIKAGWLDKNPPQGSYIYQKRWVRLDTDHLRYFDSNKDAYSKRFISVACISHVAAIGDQKFEVITNNRTFAFRAESDVERKEWMQALQQAMAEQRARARLSSAYLLGVPGSEQPDRAGSLELRGFKNKLYVAVVGDKVQLYKNLEEYHLGIGITFIDMSVGNVKEVDRRSFDLTTPYRIFSFSADSELEKEQWLEAMQGAIAEALSTSEVAERIWAAAPNRFCADCGAPQPDWASINLCVVICKRCAGEHRGLGAGVSKVRSLKMDRKVWTETLIELFLQLGNGAGNRFWAANVPPSEALQPSSSPSTRRCHLEAKYREGKYRRYHPLFGNQEELDKALCAAVTTTDLAETQALLGCGAGINCFSGDPEAPTPLALAEQAGQTLQMEFLRNNRTTEVPRLDSMKPLEKHYSVVLPTVSHSGFLYKTASAGKLLQDRRAREEFSRRWCVLGDGVLSYFENERAVTPNGEIRASEIVCLAVPPPDTHGFEHTFEVYTEGERLYLFGLESAEQAHEWVKCIAKAFVPPLAEDLLARDFERLGRLPYKAGLSLQRAQEGWFSLSGSELRAVFPEGPCEEPLQLRKLQELSIQGDSENQVLVLVERRRTLYIQGERRLDFMGWLGAIQKAAASMGDTLSEQQLGDSDIPVIVYRCVDYITQCGLTSEGIYRKCGQTSKTQRLLESLRQDARSVHLKEGEQHVDDVSSALKRFLRDLPDGLFTRAQRLTWLEASEIEDEEEKVSRYRELLVRLPPVNRATVKALISHLYCVQCFSDTNQMNVHNLAIVFGPTLFQTDGQDYKAGRVVEDLINHYVVVFSVDEEELRKQREEITAIVKMRVAGTASGTQHAGDFICTVYLEEKKAETEQHIKVPASMTAEELTLEILDRRNVGIREKDYWTCFEVNEREEAERPLHFAEKVLPILHGLGTDSHLVVKKHQAMEAMLLYLASRVGDTKHGMMKFREDRSLLGLGLPSGGFHDRYFILNSSCLRLYKEVRSQRPWSGAPETSHRPEKEWPIKSLKVYLGVKKKLRPPTCWGFTVVHETEKHEKQQWYLCCDTQMELREWFATFLFVQHDGLVWPSEPSRVSRAVPEVRLGSVSLIPLRGSENEMRRSVAAFTADPLSLLRNV
By EC50 is commonly meant the concentration giving half of the maximal effect. Read a low EC50 as an effect from little substance. Regarding B1, the EC50 was 5.6 ± 0.9 nM.

B2: Flag-[R86/90A]ARAP1 (natural protein, human, UniProt Q96P48 1-1450, looked up)
chain: MAEAGDAALSVAEWLRALHLEQYTGLFEQHGLVWATECQGLSDTRLMDMGMLLPGHRRRILAGLLRAHTSPAPAPRPTPRPVPMKAHIFASPPVPATPPEPLPTTTEDEGLPAAPPIPPRRSCLPPTCFTTPSTAAPDPVLPPLPAKRHLAELSVPPVPPRTGPPRLLVSLPTKEEESLLPSLSSPPQPQSEEPLSTLPQGPPQPPSPPPCPPEIPPKPVRLFPEFDDSDYDEVPEEGPGAPARVMTKKEEPPPSRVPRAVRVASLLSEGEELSGDDQGDEEEDDHAYEGVPNGGWHTSSLSLSLPSTIAAPHPMDGPPGGSTPVTPVIKAGWLDKNPPQGSYIYQKRWVRLDTDHLRYFDSNKDAYSKRFISVACISHVAAIGDQKFEVITNNRTFAFRAESDVERKEWMQALQQAMAEQRARARLSSAYLLGVPGSEQPDRAGSLELRGFKNKLYVAVVGDKVQLYKNLEEYHLGIGITFIDMSVGNVKEVDRRSFDLTTPYRIFSFSADSELEKEQWLEAMQGAIAEALSTSEVAERIWAAAPNRFCADCGAPQPDWASINLCVVICKRCAGEHRGLGAGVSKVRSLKMDRKVWTETLIELFLQLGNGAGNRFWAANVPPSEALQPSSSPSTRRCHLEAKYREGKYRRYHPLFGNQEELDKALCAAVTTTDLAETQALLGCGAGINCFSGDPEAPTPLALAEQAGQTLQMEFLRNNRTTEVPRLDSMKPLEKHYSVVLPTVSHSGFLYKTASAGKLLQDRRAREEFSRRWCVLGDGVLSYFENERAVTPNGEIRASEIVCLAVPPPDTHGFEHTFEVYTEGERLYLFGLESAEQAHEWVKCIAKAFVPPLAEDLLARDFERLGRLPYKAGLSLQRAQEGWFSLSGSELRAVFPEGPCEEPLQLRKLQELSIQGDSENQVLVLVERRRTLYIQGERRLDFMGWLGAIQKAAASMGDTLSEQQLGDSDIPVIVYRCVDYITQCGLTSEGIYRKCGQTSKTQRLLESLRQDARSVHLKEGEQHVDDVSSALKRFLRDLPDGLFTRAQRLTWLEASEIEDEEEKVSRYRELLVRLPPVNRATVKALISHLYCVQCFSDTNQMNVHNLAIVFGPTLFQTDGQDYKAGRVVEDLINHYVVVFSVDEEELRKQREEITAIVKMRVAGTASGTQHAGDFICTVYLEEKKAETEQHIKVPASMTAEELTLEILDRRNVGIREKDYWTCFEVNEREEAERPLHFAEKVLPILHGLGTDSHLVVKKHQAMEAMLLYLASRVGDTKHGMMKFREDRSLLGLGLPSGGFHDRYFILNSSCLRLYKEVRSQRPWSGAPETSHRPEKEWPIKSLKVYLGVKKKLRPPTCWGFTVVHETEKHEKQQWYLCCDTQMELREWFATFLFVQHDGLVWPSEPSRVSRAVPEVRLGSVSLIPLRGSENEMRRSVAAFTADPLSLLRNV
In the case of B2, the “fold more GST-CIN85 required for similar binding than for Flag-ARAP1” value was 8 fold.
